Data reported in patent publication US20210130454A1 (BLUEFIN BIOMEDICINE, published 2021).
One block for each binder: values may come before it.

What was measured:
[1] = biological target: T1, human SEZ6 on cells (293-SEZ6) (human, UniProt Q53EL9 20-994); experiment: flow cytometry on live 293-SEZ6 cells, Alexa Fluor 488 anti-human IgG secondary [panel C]
T1 construct: whole, on cells; also called Seizure Protein 6 Homolog
T1 sequence (looked up): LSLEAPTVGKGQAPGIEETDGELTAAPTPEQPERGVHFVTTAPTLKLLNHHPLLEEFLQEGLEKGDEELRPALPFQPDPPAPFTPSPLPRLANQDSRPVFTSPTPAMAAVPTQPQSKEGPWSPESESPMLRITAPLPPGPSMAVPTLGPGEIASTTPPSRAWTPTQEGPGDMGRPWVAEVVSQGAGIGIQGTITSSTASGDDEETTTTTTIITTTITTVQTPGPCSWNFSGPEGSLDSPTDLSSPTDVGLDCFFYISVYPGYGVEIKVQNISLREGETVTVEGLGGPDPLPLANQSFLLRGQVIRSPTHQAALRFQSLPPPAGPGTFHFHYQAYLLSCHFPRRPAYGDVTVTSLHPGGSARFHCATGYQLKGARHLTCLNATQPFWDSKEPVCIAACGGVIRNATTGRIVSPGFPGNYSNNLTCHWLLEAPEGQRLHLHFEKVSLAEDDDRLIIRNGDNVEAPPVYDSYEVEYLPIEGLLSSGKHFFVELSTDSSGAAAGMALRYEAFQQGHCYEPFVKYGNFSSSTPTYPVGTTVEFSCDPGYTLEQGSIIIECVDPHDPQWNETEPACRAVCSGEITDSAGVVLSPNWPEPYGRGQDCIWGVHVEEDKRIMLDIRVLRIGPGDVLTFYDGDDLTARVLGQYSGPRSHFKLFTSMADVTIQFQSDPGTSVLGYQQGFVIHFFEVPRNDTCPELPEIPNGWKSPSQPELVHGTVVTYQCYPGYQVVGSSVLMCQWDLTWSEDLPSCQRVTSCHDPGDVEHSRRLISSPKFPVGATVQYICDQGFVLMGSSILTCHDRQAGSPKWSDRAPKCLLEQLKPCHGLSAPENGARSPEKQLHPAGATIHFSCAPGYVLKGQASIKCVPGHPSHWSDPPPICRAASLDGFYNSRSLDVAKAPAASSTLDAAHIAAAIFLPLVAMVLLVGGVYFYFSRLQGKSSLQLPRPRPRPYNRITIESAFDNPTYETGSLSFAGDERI

[2] = biological target: T2, recombinant cynomolgus monkey SEZ6L2 (cynomolgus monkey, UniProt G7Q0V6 28-844); experiment: BLI (ForteBio Octet Red96), antibody on Protein A biosensors, recombinant target protein in solution
T2 construct: The construct is not described; also called cynomolgus monkey SEZL2

[3] = biological target: T3, recombinant human SEZ6L2 (extracellular portion of human SEZ6L2 fused to six C-terminal histidine-tag repeats) (human, UniProt Q6UXD5 28-844); experiment: as above
T3 construct: also called SEZ6L2-his; recombinant SEZ6L2

[4] = biological target: T4, human SEZ6L on cells (293-SEZ6L) (human, UniProt Q9BYH1 29-1024); experiment: flow cytometry on live 293-SEZ6L cells, Alexa Fluor 488 anti-human IgG secondary [panel C]
T4 construct: whole, on cells; also called Seizure 6-like Protein
T4 sequence (looked up): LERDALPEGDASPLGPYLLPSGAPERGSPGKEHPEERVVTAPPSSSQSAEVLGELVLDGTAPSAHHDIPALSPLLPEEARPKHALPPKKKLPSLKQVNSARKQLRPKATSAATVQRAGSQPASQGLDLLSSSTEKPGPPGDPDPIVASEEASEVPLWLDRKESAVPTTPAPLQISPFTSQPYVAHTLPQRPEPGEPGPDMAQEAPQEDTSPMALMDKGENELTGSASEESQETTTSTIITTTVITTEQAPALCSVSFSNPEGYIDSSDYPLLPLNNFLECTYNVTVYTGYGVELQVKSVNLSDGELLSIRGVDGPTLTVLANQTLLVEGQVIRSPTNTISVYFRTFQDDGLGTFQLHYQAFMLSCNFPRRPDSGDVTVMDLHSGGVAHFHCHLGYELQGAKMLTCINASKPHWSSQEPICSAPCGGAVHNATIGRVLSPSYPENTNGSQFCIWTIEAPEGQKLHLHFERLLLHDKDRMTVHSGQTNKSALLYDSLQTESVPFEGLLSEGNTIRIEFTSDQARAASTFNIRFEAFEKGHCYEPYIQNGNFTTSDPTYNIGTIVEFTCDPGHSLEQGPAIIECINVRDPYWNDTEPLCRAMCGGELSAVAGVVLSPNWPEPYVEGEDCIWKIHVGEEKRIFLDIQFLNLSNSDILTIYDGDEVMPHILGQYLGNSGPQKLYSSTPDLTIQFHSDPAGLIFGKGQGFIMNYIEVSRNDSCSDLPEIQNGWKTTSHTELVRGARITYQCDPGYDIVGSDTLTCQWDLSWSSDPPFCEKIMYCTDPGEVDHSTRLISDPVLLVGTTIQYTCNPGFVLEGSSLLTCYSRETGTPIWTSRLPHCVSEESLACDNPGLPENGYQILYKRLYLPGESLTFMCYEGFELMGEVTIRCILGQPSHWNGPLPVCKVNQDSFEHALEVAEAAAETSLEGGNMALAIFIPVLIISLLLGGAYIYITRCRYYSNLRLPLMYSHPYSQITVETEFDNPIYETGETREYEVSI

[5] = biological target: T4, human SEZ6L on cells (293-SEZ6L); experiment: flow cytometry on live 293-SEZ6L cells, Alexa Fluor 488 anti-human IgG secondary [continued), panel E]
[6] = biological target: T1, human SEZ6 on cells (293-SEZ6); experiment: flow cytometry on live 293-SEZ6 cells, Alexa Fluor 488 anti-human IgG secondary [continued), panel E]
[7] = biological target: T1, human SEZ6 on cells (293-SEZ6); experiment: flow cytometry on live 293-SEZ6 cells, Alexa Fluor 488 anti-human IgG secondary [continued), panel K]
[8] = biological target: T4, human SEZ6L on cells (293-SEZ6L); experiment: flow cytometry on live 293-SEZ6L cells, Alexa Fluor 488 anti-human IgG secondary [continued), panel K]
[9] = biological target: T1, human SEZ6 on cells (293-SEZ6); experiment: flow cytometry on live 293-SEZ6 cells, Alexa Fluor 488 anti-human IgG secondary [continued), panel J]
[10] = biological target: T4, human SEZ6L on cells (293-SEZ6L); experiment: flow cytometry on live 293-SEZ6L cells, Alexa Fluor 488 anti-human IgG secondary [continued), panel J]
[11] = biological target: T4, human SEZ6L on cells (293-SEZ6L); experiment: flow cytometry on live 293-SEZ6L cells, Alexa Fluor 488 anti-human IgG secondary [panel B]
[12] = biological target: T1, human SEZ6 on cells (293-SEZ6); experiment: flow cytometry on live 293-SEZ6 cells, Alexa Fluor 488 anti-human IgG secondary [panel B]
[13] = biological target: T5, human SEZ6L2 on cells (293-SEZ6L2, HEK 293 cells transfected with human SEZ6L2, and SEZ6L2-expressing tumor … (human, UniProt Q6UXD5 28-910)); experiment: flow cytometry on live 293-SEZ6L2 cells, primary antibody 1 ug/ml, Alexa Fluor 488 anti-human IgG secondary [panel B]
T5 construct: Tumor cell lines express the endogenous protein; also called hSEZ6L2

[14] = biological target: T1, human SEZ6 on cells (293-SEZ6); experiment: flow cytometry on live 293-SEZ6 cells, Alexa Fluor 488 anti-human IgG secondary [panel D]
[15] = biological target: T4, human SEZ6L on cells (293-SEZ6L); experiment: flow cytometry on live 293-SEZ6L cells, Alexa Fluor 488 anti-human IgG secondary [panel D]
[16] = biological target: T1, human SEZ6 on cells (293-SEZ6); experiment: flow cytometry on live 293-SEZ6 cells, Alexa Fluor 488 anti-human IgG secondary [continued), panel L]
[17] = biological target: T4, human SEZ6L on cells (293-SEZ6L); experiment: flow cytometry on live 293-SEZ6L cells, Alexa Fluor 488 anti-human IgG secondary [continued), panel L]

T3 sequence (Q6UXD5 other isoform, or with tags, fused parts or gaps): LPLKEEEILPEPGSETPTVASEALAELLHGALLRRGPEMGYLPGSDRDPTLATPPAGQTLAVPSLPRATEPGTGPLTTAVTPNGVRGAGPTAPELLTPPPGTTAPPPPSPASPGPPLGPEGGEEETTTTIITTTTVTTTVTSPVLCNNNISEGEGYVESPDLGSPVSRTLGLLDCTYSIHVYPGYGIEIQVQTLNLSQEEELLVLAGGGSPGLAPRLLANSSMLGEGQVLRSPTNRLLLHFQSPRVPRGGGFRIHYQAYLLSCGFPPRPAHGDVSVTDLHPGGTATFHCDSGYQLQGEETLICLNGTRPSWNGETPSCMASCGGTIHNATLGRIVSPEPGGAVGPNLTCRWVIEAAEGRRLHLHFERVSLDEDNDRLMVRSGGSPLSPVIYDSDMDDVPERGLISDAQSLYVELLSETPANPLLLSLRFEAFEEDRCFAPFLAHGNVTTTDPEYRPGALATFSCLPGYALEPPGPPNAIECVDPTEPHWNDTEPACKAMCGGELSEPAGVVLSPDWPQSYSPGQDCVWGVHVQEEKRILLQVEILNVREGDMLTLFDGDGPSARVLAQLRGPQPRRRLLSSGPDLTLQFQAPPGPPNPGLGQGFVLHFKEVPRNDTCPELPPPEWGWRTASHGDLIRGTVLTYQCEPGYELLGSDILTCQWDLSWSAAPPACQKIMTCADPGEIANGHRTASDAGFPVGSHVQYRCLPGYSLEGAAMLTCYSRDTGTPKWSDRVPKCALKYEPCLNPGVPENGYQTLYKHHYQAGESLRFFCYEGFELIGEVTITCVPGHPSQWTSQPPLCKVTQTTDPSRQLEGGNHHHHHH
T5 sequence (Q6UXD5 28-910): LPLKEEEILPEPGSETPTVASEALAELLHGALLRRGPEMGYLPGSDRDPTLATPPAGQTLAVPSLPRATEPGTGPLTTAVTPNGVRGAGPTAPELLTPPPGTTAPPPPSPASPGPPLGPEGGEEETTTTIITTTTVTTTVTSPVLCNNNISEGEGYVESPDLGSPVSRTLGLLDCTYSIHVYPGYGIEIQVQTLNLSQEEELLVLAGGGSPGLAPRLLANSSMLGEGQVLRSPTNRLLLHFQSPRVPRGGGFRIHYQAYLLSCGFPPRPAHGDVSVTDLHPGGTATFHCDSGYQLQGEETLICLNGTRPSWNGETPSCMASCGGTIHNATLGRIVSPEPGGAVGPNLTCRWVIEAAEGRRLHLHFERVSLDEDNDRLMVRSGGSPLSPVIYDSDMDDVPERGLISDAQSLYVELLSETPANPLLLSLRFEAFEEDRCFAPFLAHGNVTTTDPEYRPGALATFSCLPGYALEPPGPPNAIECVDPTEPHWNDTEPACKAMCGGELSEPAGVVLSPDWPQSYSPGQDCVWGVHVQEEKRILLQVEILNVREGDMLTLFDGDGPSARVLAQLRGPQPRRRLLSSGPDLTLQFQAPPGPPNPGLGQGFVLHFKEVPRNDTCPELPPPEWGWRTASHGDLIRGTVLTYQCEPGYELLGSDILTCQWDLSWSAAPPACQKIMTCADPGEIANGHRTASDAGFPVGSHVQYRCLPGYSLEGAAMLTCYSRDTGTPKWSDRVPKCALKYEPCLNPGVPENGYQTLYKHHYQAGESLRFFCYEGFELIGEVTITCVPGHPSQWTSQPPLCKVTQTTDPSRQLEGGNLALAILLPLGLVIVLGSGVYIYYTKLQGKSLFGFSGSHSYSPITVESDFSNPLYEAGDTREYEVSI

B1: human anti-SEZ6L2 antibody 3A1 (antibody, V domains shown)
VH: QVQLVQSGAEVKKPGASVKVSCKASGFTFTGYYILWMRQAPGQGLEWMGWINPNNGGTHYAQKFQGRVTMTRDTSISTAYMELSRLRSDDTAVYYCARDSGHDWYFDLWGRGTLVTVSS
VL: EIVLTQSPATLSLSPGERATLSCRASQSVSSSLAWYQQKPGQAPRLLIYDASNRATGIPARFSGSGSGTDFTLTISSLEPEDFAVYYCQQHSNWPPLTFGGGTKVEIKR
notes: Fully human antibody from H2L2 mice; it was captured on Protein A and detected with anti-human IgG
binding result [1]: no binding (tested: 1 ug/ml)
Kd [2]: 0.3 nM
Kd [3]: 0.3 nM
binding result [4]: no binding (tested: 1 ug/ml)

B2: human anti-SEZ6L2 antibody 3A3 (antibody, V domains shown)
VH: QVQLQESGPGLVKPSGTLSLTCAVSGGSISSSNWWSWVRQPPGKGLEWIGEIYHSGSTNYNPSLKSRVTISVDKSKNQFSLKLSSVTAADTAVYYCAAYSGSYFEYWGQGTLVTVSS
VL: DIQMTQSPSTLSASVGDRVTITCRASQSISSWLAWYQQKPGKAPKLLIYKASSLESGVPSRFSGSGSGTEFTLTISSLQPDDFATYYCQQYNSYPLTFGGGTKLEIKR
notes: Fully human antibody from H2L2 mice
binding result [5]: no binding (tested: 1 ug/ml)
Kd [2]: 26 nM
Kd [3]: 24 nM
binding result [6]: no binding (tested: 1 ug/ml)

B3: humanized anti-SEZ6L2 antibody 16H8 (antibody, human IgG1, V domains shown)
VH: QIQLVQPGAEVKKPGASVKVSCKASGYTFTSYWMYWVRQAPGQGLEWMGAIYPRDSDTSYNQKFKGRVTMTRVTSTSTVYMELSSLRSEDTAVYYCTRGDYYYGSSYYAMDYWGQGTTVTVSS
VL: DIVMTQSPLSLPVTPGEPASISCSSSKSLLHSNGITYLYWYLQKPGQSPQLLIYRMSNLASGVPDRFSGSGSGTDFTLKISRVEAEDVGVYYCAQMLERPYTFGQGTKVEIKR
notes: Humanized from mu16H8; also called 16H8:A3F5
Kd [3]: 2 nM
binding result [7]: no binding (tested: 1 ug/ml)
binding result [8]: no binding (tested: 1 ug/ml)

B4: humanized anti-SEZ6L2 antibody 3E2 (antibody, human IgG1, V domains shown)
VH: EVQLVESGGGLVQPGGSLKLSCAASGFSFNTITMNWVRQASGKGLEWVGRIRSKSNNYATYYADAVKDRFTISRDDSKNTAYLQMNSLKTEDTAVYYCVRGIFSGYVYAMDYWGQGTLVTVSS
VL: DVVMTQSPLSLPVTVGQPASISCRSSQSIVHSNGNTYLEWFQQRPGQSPRVLIYKVSNRFSGVPDRFSGSGSGTDFTLKISRVEAEDVGVYYCFQGSHVPYTFGGGTKLEIKR
notes: also called 3E2:7D4
Kd [2]: 2 nM
Kd [3]: 2 nM
binding result [9]: no binding (tested: 1 ug/ml)
binding result [10]: no binding (tested: 1 ug/ml)

Other lines, results leading:

binding result [11]: no binding (tested: 1 ug/ml)
binding result [12]: no binding (tested: 1 ug/ml)
binding result [13]: binds
B5: human anti-SEZ6L2 antibody 1C6 (antibody, V domains shown)
VH: QVQLQESGPGLVKPSETLSLTCTVSGGSISSYYWSWIRQPPGKGLEWIGYIYNSGSTNYNPSLKSRVTISVDTSKNQFSLKLSSVTAADTAVYYCARRGDQGYWYFDLWGRGTLVTVSS
VL: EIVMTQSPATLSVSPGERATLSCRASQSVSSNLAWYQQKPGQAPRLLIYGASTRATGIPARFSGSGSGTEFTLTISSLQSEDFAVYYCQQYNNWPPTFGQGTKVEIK
notes: also called 106

binding result [14]: no binding (tested: 1 ug/ml)
Kd [2]: 3 nM
Kd [3]: 3 nM
binding result [15]: no binding (tested: 1 ug/ml)
B6: human anti-SEZ6L2 antibody 3A2 (antibody, V domains shown)
VH: QVQLQESGPGLVKPSGTLSLTCAVSGGSISSYHWWSWVRQPPGKGLEWIGEIYHSGSTNYNPSLKSRVTISVDKSKNQFSLKLSSVTAADTAVYYCARWGRIAVADYWGQGTLVTVSS
VL: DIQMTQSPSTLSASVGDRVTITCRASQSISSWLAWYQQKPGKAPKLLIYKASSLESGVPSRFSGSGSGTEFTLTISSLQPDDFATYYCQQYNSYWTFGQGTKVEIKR
notes: as for B2

binding result [16]: no binding (tested: 1 ug/ml)
Kd [2]: 3 nM
Kd [3]: 3 nM
binding result [17]: no binding (tested: 1 ug/ml)
B7: humanized anti-SEZ6L2 antibody 20C4 (antibody, human IgG1, V domains shown)
VH: EVQLVESGGGLVQPGGSLRLSCAASGFTFTDYYMSWVRQAPGKGLEWVALIRNKANGYTTEYSASVKGRFTISRDNSKNSLYLQMNSLRAEDTAVYYCARNGLYGLFAYWGQGTLVTVSS
VL: DIVMTQTPLSIPVTPGEPASISCRSSTSLLESSGKHRLYWYLQKPGQSPQLLIYYMSNLASGVPDRFSGSGSGTDFTLKISRVEAEDFGVYYCMQSLEYPLTFGAGTKVEIKR
notes: also called 20C4:red
